“Also recorded” adds a separate entry of the source.
B1: Propionicin T1: new bacteriocin isolated from Propionibacterium thoenii 419 and LMG 2792; prebacteriocin SEQ ID NO:11, N-terminal sequence SEQ ID NO:9 (protein, listed as Propionibacterium thoenii)
chain: MKKTLLRSGTIALATAAAFGASLAAAPSAMAVPGGCTYTRSNRDVIGTCKTGSGQFRIRLDCNNAPDKTSVWAKPKVMVSVHCLVGQPRSISFETK

Key:
[1] = tested on: Listeria monocytogenes; details: food-borne pathogen; cited from earlier work
[2] = tested on: Lactobacillus sake NCDO 2714; test: overlay assay, zones of growth inhibition around producer colonies; format: cell-based; details: bacteriocin
Experimental: (§1) Screening for antimicrobial activity. Colonies of strains of propionibacteria were grown on agar plates for 72 to 120 hr. A lawn of 5 ml GM17 soft agar containing 500 μl of a fresh culture of the indicator organisms was then poured over the plates. After incubation for 24 to 48 hr at 30° C., the colonies were examined for zones of growth inhibition.

[3] = tested on: Propionibacterium freudenreichii; test: overlay assay, ten strains of Propionibacterium freudenreichii; format: cell-based; details: bacteriocin
Experimental: as §1

[4] = stability of propionicin T1 (heat, acid, storage); format: physicochemical
Experimental: (§2) Bacteriocin assay. Antimicrobial activity was determined by a microtiter plate assay (8). Each well of the microtiter plate contained 50 μl of twofold serial dilutions in SLB or GM17 of the bacteriocin samples, and 150 μl of a 100-fold-diluted fresh overnight culture of the indicator strain. The plates were incubated at 30° C. for 24 to 48 hr, and growth inhibition of the indicator organisms was measured spectrophotometrically at 620 nm with a microtiter plate reader. One bacteriocin unit (BU) was defined as the amount of bacteriocin that inhibited the growth of the indicator organism by 50% as compared with a control culture without bacteriocin.
Stability of propionicin T1. The stability of the peptide was tested, by exposing the bacteriocin (0.3 M NaCl eluate from the cation exchange column) to temperatures of 60° C. and 100° C. for 15 min and to pH 2.5 for one hour. […] Thus, propionicin T1 is heat stable and acid stable.

[5] = tested on: P. acidipropionici ATCC 4965; test: effect of the bacteriocin on the viability of sensitive cells; format: cell-based, Propionibacterium acidipropionici
Experimental: Effect of the bacteriocin on the viability of sensitive cells. Partially purified bacteriocin from P. thoenii 419 eluted in 0.3 M NaCl from an ion-exchange column was added in variable amounts to a 48 hr culture of P. acidipropionici grown in GM17, diluted 100-fold. Optical density at 620 nm and viable count (by dilution and plate counting) were determined at time intervals.
The effect of propionicin T1 on viability of sensitive cells. Several experiments were performed to show the effect of propionicin T1 on the viability of the indicator cells. Cultures of P. acidipropionici ATCC 4965 were exposed to different amounts of partially purified propionicin T1. […] More than 99% of the cells were killed after 40 hr (FIG. 2A). The same result was also obtained using 100 or 4000 BU/ml. […] This increase was followed by a decrease in optical density (FIG. 2B).

[6] = tested on: all strains of Propionibacterium acidipropionici tested; test: inhibition spectrum of propionicin T1; format: cell-based
Experimental: as §1, §2

[7] = tested on: all strains of Propionibacterium jensenii tested; test: inhibition spectrum of propionicin T1; format: cell-based
Experimental: as §1, §2

[8] = tested on: all strains of Propionibacterium thoenii tested; test: inhibition spectrum of propionicin T1; format: cell-based
Experimental: as §1, §2

Molecule | activity against Listeria monocytogenes [1] | activity against Lactobacillus sake NCDO 2714 [2] | activity against Propionibacterium freudenreichii [3] | antimicrobial activity after heat exposure ([4]; 60° C. for 15 min, 0.3 M NaCl eluate from cation exchange column) | antimicrobial activity after heat exposure ([4]; 100° C. for 15 min, 0.3 M NaCl eluate from cation exchange column) | antimicrobial activity after acid exposure ([4]; pH 2.5 for one hour, 0.3 M NaCl eluate from cation exchange column) | bacteriocin activity after storage at room temperature ([4]; room temperature for 24 hr) | bacteriocin activity after freezing, thawing and storage ([4]; storage at 4° C. or −20° C. up to six months) | optical density (620 nm) of bacteriocin treated cultures ([5]; 100 or 1000 BU/ml culture, FIG. 2B) | cells killed, other bacteriocin amounts ([5]; 100 or 4000 BU/ml) | viable count ([5]; after 4 hr, plate counting) | cells killed ([5]; after 40 hr, 1000 BU/ml culture, plate counting, partially purified) | mode of action on indicator cells ([5]; plate counting) | activity against Propionibacterium acidipropionici [6] | activity against Propionibacterium jensenii [7] | activity against Propionibacterium thoenii [8]
nisin | not very sensitive |  |  |  |  |  |  |  |  |  |  |  |  |  |  | 
pediocin PA1 (KYYGNGVTCGKHSCSVDWGKATTCIINNGAMAWATGGHQGNHKC; Bacteriocin pediocin PA-1; UniProt P29430 19-62, looked up) [antibacterial protein produced by Pediococcus acidilactici PAC1.0] | very active |  |  |  |  |  |  |  |  |  |  |  |  |  |  | 
B1 |  | active | no activity; also recorded: no strains of P. freudenreichii were inhibited | No reduction in antimicrobial activity | No reduction in antimicrobial activity | No reduction in antimicrobial activity | no effect on the bacteriocin activity | no effect on the bacteriocin activity | increase in the optical density for several hours after addition of bacteriocin | same result | reduction in viable count | More than 99% | bactericidal effect; also recorded: slow bactericidal mode of action | active | active | active
